Results on 125 sequences are retold here after the supplement of paper PMC9112550, “Optimization of the antimicrobial peptide Bac7 by deep mutational scanning” (BMC Biology, 2022).

The subject of this data set is Escherichia coli TOP10. Nature of the data set: shrunken log2 fold change of peptide-encoding DNA abundance (4.5 h post-induction vs induction); higher = less antimicrobial activity (less host growth inhibition). The settings on record: time post-induction: 4.5 h; library: site-saturation at positions 5, 18, 19, 20.
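Note: peptides expressed intracellularly from a pBAD plasmid library in pooled LB shake-flask culture, induced with 0.3% L-arabinose, DNA abundance read by NGS, three biological replicates, DESeq2 with apeglm shrinkage.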

For the sequence RRIRPRPPRLPRPRPRPCDHPRP, the “shrunken log2 fold change” value is -0.128.
Regarding RRIRPRPPRLPRPRPRPFCGPRP, the “shrunken log2 fold change” value stood at 0.00967.
To RRIRMRPPRLPRPRPRPYCDPRP belongs -0.556.
The same measure for RRIRGRPPRLPRPRPRPHKQPRP: 0.0331; for RRIRFRPPRLPRPRPRPERWPRP: 0.462; for RRIRARPPRLPRPRPRPKTAPRP: 0.0481.
The same measure for RRIRGRPPRLPRPRPRPWVFPRP: 0.758; for RRIRGRPPRLPRPRPRPRFWPRP: 0.943.
As to RRIRSRPPRLPRPRPRPADPPRP, the “shrunken log2 fold change” value came out at 0.0724.
As to RRIRQRPPRLPRPRPRPIDTPRP, the “shrunken log2 fold change” value was -0.216.
For the sequence RRIRLRPPRLPRPRPRPRKKPRP, the “shrunken log2 fold change” value was 0.355.
On to RRIRNRPPRLPRPRPRPQQLPRP, for which the “shrunken log2 fold change” value was -0.0538.
As for RRIRTRPPRLPRPRPRPIDHPRP, the “shrunken log2 fold change” value was -0.263.
Turning to RRIRPRPPRLPRPRPRPSKLPRP, the “shrunken log2 fold change” value was -0.224.
Consider RRIRWRPPRLPRPRPRPENHPRP, for which the “shrunken log2 fold change” value is -0.176.
To RRIRARPPRLPRPRPRPMYYPRP belongs -0.433; to RRIRPRPPRLPRPRPRPFAWPRP, 0.169.
In the case of RRIRMRPPRLPRPRPRPWTLPRP, the “shrunken log2 fold change” value was -0.0343.
Consider RRIRGRPPRLPRPRPRPDKEPRP, for which the “shrunken log2 fold change” value stood at 0.208.
To RRIRQRPPRLPRPRPRPWMAPRP belongs -0.147; to RRIRTRPPRLPRPRPRPRYLPRP, -0.131.
The same measure for RRIRIRPPRLPRPRPRPNCWPRP: 0.0114; for RRIRHRPPRLPRPRPRPTGIPRP: -0.0208.
To RRIRNRPPRLPRPRPRPDGEPRP belongs -0.00776.
With RRIRMRPPRLPRPRPRPPQCPRP, the “shrunken log2 fold change” value is 0.566.
Regarding RRIRVRPPRLPRPRPRPDADPRP, the “shrunken log2 fold change” value stood at 0.793.
Regarding RRIRSRPPRLPRPRPRPPADPRP, the “shrunken log2 fold change” value came out at 0.981.
The same measure for RRIRVRPPRLPRPRPRPINTPRP: -1.07; for RRIRERPPRLPRPRPRPWKEPRP: 0.0039.
To RRIRMRPPRLPRPRPRPRTPPRP belongs 1.26; to RRIRQRPPRLPRPRPRPHLYPRP, -0.129.
The same measure for RRIRRRPPRLPRPRPRPSIWPRP: 0.032; for RRIRMRPPRLPRPRPRPHNQPRP: 0.177.
In the case of RRIRSRPPRLPRPRPRPSIAPRP, the “shrunken log2 fold change” value was -0.167.
To RRIRWRPPRLPRPRPRPHGPPRP belongs 0.0026.
With RRIRGRPPRLPRPRPRPKHIPRP, the “shrunken log2 fold change” value was -0.00571.
RRIRSRPPRLPRPRPRPELMPRP: the “shrunken log2 fold change” value amounted to 0.469.
The same measure for RRIRSRPPRLPRPRPRPANGPRP: -0.0714.
As for RRIRARPPRLPRPRPRPIKNPRP, the “shrunken log2 fold change” value came to 0.00937.
To RRIRWRPPRLPRPRPRPLEKPRP belongs 0.429.
For the sequence RRIRTRPPRLPRPRPRPKRTPRP, the “shrunken log2 fold change” value was -0.132.
In the case of RRIRWRPPRLPRPRPRPHMIPRP, the “shrunken log2 fold change” value is -0.219.
As to RRIRTRPPRLPRPRPRPVPLPRP, the “shrunken log2 fold change” value is -0.145.
With RRIRMRPPRLPRPRPRPYIQPRP, the “shrunken log2 fold change” value is -1.05.
As to RRIRRRPPRLPRPRPRPEELPRP, the “shrunken log2 fold change” value was determined as 0.338.
Take RRIRVRPPRLPRPRPRPGHAPRP: the “shrunken log2 fold change” value was determined as 0.245.
The same measure for RRIRYRPPRLPRPRPRPPKKPRP: -0.0754; for RRIRWRPPRLPRPRPRPYHIPRP: -0.96; for RRIRVRPPRLPRPRPRPMFKPRP: -0.24.
Consider RRIRWRPPRLPRPRPRPYVDPRP, for which the “shrunken log2 fold change” value was -0.171.
For the sequence RRIRRRPPRLPRPRPRPCVEPRP, the “shrunken log2 fold change” value is -0.0155.
To RRIRSRPPRLPRPRPRPNADPRP belongs 0.113; to RRIRKRPPRLPRPRPRPQLHPRP, 0.0197; to RRIRDRPPRLPRPRPRPSPNPRP, 0.122.
For RRIRKRPPRLPRPRPRPPRIPRP, the “shrunken log2 fold change” value is 0.323.
To RRIRVRPPRLPRPRPRPMTWPRP belongs -0.124.
To RRIRHRPPRLPRPRPRPAGSPRP belongs -0.0875; to RRIRWRPPRLPRPRPRPCFTPRP, -0.0397; to RRIRFRPPRLPRPRPRPMNCPRP, -0.735.
For the sequence RRIRPRPPRLPRPRPRPHGLPRP, the “shrunken log2 fold change” value turned out to be 0.026.
The same measure for RRIRCRPPRLPRPRPRPGIPPRP: -0.126.
In the case of RRIRVRPPRLPRPRPRPVRLPRP, the “shrunken log2 fold change” value came to 0.44.
The same measure for RRIRMRPPRLPRPRPRPNWFPRP: -0.607.
The same measure for RRIRYRPPRLPRPRPRPGVCPRP: -0.0493.
To RRIRRRPPRLPRPRPRPYCAPRP belongs -0.0524; to RRIRMRPPRLPRPRPRPSQMPRP, 0.344; to RRIRQRPPRLPRPRPRPETSPRP, -0.192.
Regarding RRIRPRPPRLPRPRPRPCHIPRP, the “shrunken log2 fold change” value was -0.821.
As for RRIRMRPPRLPRPRPRPYWFPRP, the “shrunken log2 fold change” value is -0.131.
RRIRARPPRLPRPRPRPFEGPRP: the “shrunken log2 fold change” value came to 0.0201.
Turning to RRIRHRPPRLPRPRPRPKQVPRP, the “shrunken log2 fold change” value is -0.482.
On to RRIRFRPPRLPRPRPRPEEDPRP, for which the “shrunken log2 fold change” value was -0.185.
Turning to RRIRVRPPRLPRPRPRPYFMPRP, the “shrunken log2 fold change” value is -0.797.
As for RRIRERPPRLPRPRPRPVGPPRP, the “shrunken log2 fold change” value was -0.0231.
To RRIRKRPPRLPRPRPRPPQNPRP belongs 0.723.
The same measure for RRIRKRPPRLPRPRPRPDEMPRP: 0.188; for RRIRQRPPRLPRPRPRPNQIPRP: -0.371; for RRIRKRPPRLPRPRPRPYNSPRP: -0.49.
To RRIRPRPPRLPRPRPRPCMGPRP belongs -0.398; to RRIRWRPPRLPRPRPRPPWRPRP, 0.696; to RRIRWRPPRLPRPRPRPHYRPRP, 0.0266.
In the case of RRIRLRPPRLPRPRPRPPVYPRP, the “shrunken log2 fold change” value amounted to 0.0309.
To RRIRTRPPRLPRPRPRPIFSPRP belongs -0.393; to RRIRRRPPRLPRPRPRPKMEPRP, 0.282; to RRIRSRPPRLPRPRPRPHDQPRP, 0.276.
On to RRIRCRPPRLPRPRPRPQECPRP, for which the “shrunken log2 fold change” value was -0.0139.
For RRIRWRPPRLPRPRPRPVIQPRP, the “shrunken log2 fold change” value was -0.2.
Regarding RRIRDRPPRLPRPRPRPHIAPRP, the “shrunken log2 fold change” value was 0.0931.
The same measure for RRIRARPPRLPRPRPRPHTHPRP: -0.175; for RRIRERPPRLPRPRPRPSDEPRP: -0.228.
To RRIRPRPPRLPRPRPRPKPYPRP belongs -0.0782; to RRIRNRPPRLPRPRPRPQTMPRP, -0.238.
The same measure for RRIRMRPPRLPRPRPRPMCIPRP: -0.296; for RRIRPRPPRLPRPRPRPVAWPRP: 0.225.
As to RRIRWRPPRLPRPRPRPETGPRP, the “shrunken log2 fold change” value stood at 0.396.
The same measure for RRIRYRPPRLPRPRPRPFIWPRP: -0.2; for RRIRERPPRLPRPRPRPMWAPRP: -0.122; for RRIRTRPPRLPRPRPRPYLKPRP: -0.27.
The same measure for RRIRGRPPRLPRPRPRPESEPRP: 2; for RRIRHRPPRLPRPRPRPVTMPRP: -0.513; for RRIRKRPPRLPRPRPRPTCNPRP: 0.198.
The same measure for RRIRNRPPRLPRPRPRPDMVPRP: 0.00433.
As for RRIRQRPPRLPRPRPRPMHPPRP, the “shrunken log2 fold change” value came out at 0.203.
The same measure for RRIRCRPPRLPRPRPRPAIRPRP: -0.0579.
To RRIRDRPPRLPRPRPRPRFPPRP belongs 1.75; to RRIRCRPPRLPRPRPRPMDVPRP, -0.00136.
For RRIRGRPPRLPRPRPRPPYGPRP, the “shrunken log2 fold change” value came to 0.341.
On to RRIRPRPPRLPRPRPRPTSRPRP, for which the “shrunken log2 fold change” value was -0.0592.
With RRIRFRPPRLPRPRPRPTIKPRP, the “shrunken log2 fold change” value was -0.223.
As for RRIRTRPPRLPRPRPRPTMQPRP, the “shrunken log2 fold change” value was 0.0459.
RRIRHRPPRLPRPRPRPLGNPRP: the “shrunken log2 fold change” value is 0.017.
In the case of RRIRARPPRLPRPRPRPEAVPRP, the “shrunken log2 fold change” value was 1.59.
Regarding RRIRDRPPRLPRPRPRPSIDPRP, the “shrunken log2 fold change” value is -0.145.
In the case of RRIRGRPPRLPRPRPRPHACPRP, the “shrunken log2 fold change” value is -0.0193.
For the sequence RRIRRRPPRLPRPRPRPYGNPRP, the “shrunken log2 fold change” value is -0.219.
RRIRSRPPRLPRPRPRPHRQPRP: the “shrunken log2 fold change” value stood at 0.114.
Consider RRIRERPPRLPRPRPRPRPIPRP, for which the “shrunken log2 fold change” value amounted to 0.345.
For RRIRCRPPRLPRPRPRPNPMPRP, the “shrunken log2 fold change” value was -0.246.
Turning to RRIRERPPRLPRPRPRPCHCPRP, the “shrunken log2 fold change” value is -0.344.
The same measure for RRIRPRPPRLPRPRPRPWYWPRP: -0.161; for RRIRWRPPRLPRPRPRPFSTPRP: -0.14; for RRIRTRPPRLPRPRPRPGQRPRP: 0.118.
Consider RRIRRRPPRLPRPRPRPAGYPRP, for which the “shrunken log2 fold change” value was -0.269.
The same measure for RRIRGRPPRLPRPRPRPDPWPRP: 0.53; for RRIRGRPPRLPRPRPRPPIDPRP: 0.888.
